Measured values published in US20260014211.

How the values were obtained:
[1] = test system: His-BcpT R65N:R199N
[2] = test system: His-BcpT R65N
[3] = test system: His-BcpT (recombinant N-terminal His-tagged BcpT without signal sequence)
[4] = test system: His-BcpT R199N

Factor Xa
cleavage by FXa (Coomassie gel) [1]: are not cleaved by FXa (other than releasing the His-tag) | cleavage by FXa (Coomassie gel) [2]: is cleaved only at the R199 site | cleavage of His-tagged BcpT (Coomassie gel, N-terminal sequencing of fragments) [3]: FXa cleaves after R65 and R199 of two Leu-Thr-Arg (LTR) motifs | cleavage by FXa (Coomassie gel) [4]: are not cleaved by FXa (other than releasing the His-tag)

doripain A activated with trypsin, DpnA(a)
cleavage and activation of BcpT (Coomassie gel, agar overlay) [3]: The active forms of both proteases cleave and activate BcpT | cleavage of BcpT site mutant (Western immunoblot) [4]: both proteases can cleave BcpT^R199N at the R65 site, which FXa does not

doripain A, full-length recombinant proenzyme (not trypsin treated)
activation of BcpT (Coomassie gel, agar overlay) [3]: DpnA remains full-length and cannot activate BcpT

doripain B (DpnB)
cleavage and activation of BcpT (Coomassie gel, agar overlay) [3]: The active forms of both proteases cleave and activate BcpT | cleavage of BcpT site mutant (Western immunoblot) [4]: both proteases can cleave BcpT^R199N at the R65 site, which FXa does not
